Article PMC2777437

Key:
RHD-CBFb complex [1] = molecular target: T1, RHD-CBFb complex (UniProt Q01196;Q13951 50-178;1-141); assay: fluorescence anisotropy
RHD-CBFb complex [2] = molecular target: T1, RHD-CBFb complex; assay: fluorescence anisotropy; remark: listed apart in the source

T1 sequence (Q01196 50-178, chain 1 of 2): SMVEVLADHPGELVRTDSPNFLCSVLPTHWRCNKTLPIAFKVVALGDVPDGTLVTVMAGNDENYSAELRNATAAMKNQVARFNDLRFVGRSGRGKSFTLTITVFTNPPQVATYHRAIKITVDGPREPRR
T1 sequence (Q13951 1-141, chain 2 of 2): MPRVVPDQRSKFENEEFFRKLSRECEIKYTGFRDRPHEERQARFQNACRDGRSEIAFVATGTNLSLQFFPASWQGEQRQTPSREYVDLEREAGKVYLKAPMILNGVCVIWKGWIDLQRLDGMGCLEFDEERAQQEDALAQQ

Q: Which Kd (RHD-CBFb complex [1]) does the source give for AUUACCGGCGAGUUUUGAACCGCGUAAU (structured_RNA, none) [Apt28A] here?
A: 108 ± 34 nM

Q: GGUCCAGGCGCGUUAGCAAAACCGCGGAUC (structured_RNA, none) [Apt45A] was tested. Which Kd (RHD-CBFb complex [1]) did it give?
A: 162 ± 102 nM

Q: Does ATTACCGGCGAGTTTTGAACCGCGTAAT (ssDNA) [DNA Apt28A] bind (RHD-CBFb complex [2])?
A: no binding
